Assay results as given in patent US20220298237A1 (KEIO UNIVERSITY, published 2022).
“And” between values parts separate entries of the source, which are not always exact repeats. Equal values may be shown once.

T1: human aquaporin 3 (AQP3) on cells (human, UniProt Q92482 1-292)
T1 construct: whole, on cells; Water channel membrane protein; also called human AQP3; AQP3 on HaCaT cells
T1 sequence (looked up): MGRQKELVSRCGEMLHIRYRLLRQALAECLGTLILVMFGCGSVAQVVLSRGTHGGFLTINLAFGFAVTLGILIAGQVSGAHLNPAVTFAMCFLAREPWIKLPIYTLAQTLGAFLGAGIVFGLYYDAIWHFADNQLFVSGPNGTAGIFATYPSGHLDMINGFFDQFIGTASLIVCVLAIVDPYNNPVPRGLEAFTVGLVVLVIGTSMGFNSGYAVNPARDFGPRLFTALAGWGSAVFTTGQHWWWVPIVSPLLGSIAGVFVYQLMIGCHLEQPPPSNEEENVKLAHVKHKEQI

T2: oligopeptide SRGTHGGFL (SEQ ID NO: 2)
T2 construct: Synthetic peptide of AQP3 Loop A; also called Loop A peptide; control peptide
T2 peptide: SRGTHGGFL

T3: oligopeptide AGIFATYPSGHLDM (SEQ ID NO: 106)
T3 construct: Synthetic peptide, part of Loop C of AQP3
T3 peptide: AGIFATYPSGHLDM

T4: oligopeptide GHLDM (SEQ ID NO: 100)
T4 construct: Synthetic peptide, part of Loop C of AQP3
T4 peptide: GHLDM

T5: oligopeptide ATYPSG (SEQ ID NO: 104)
T5 construct: Synthetic peptide, part of Loop C of AQP3
T5 peptide: ATYPSG

T6: oligopeptide SGHLDM (SEQ ID NO: 99)
T6 construct: Synthetic peptide, part of Loop C of AQP3
T6 peptide: SGHLDM

T7: oligopeptide FATYPSGHLDM (SEQ ID NO: 109)
T7 construct: Synthetic peptide, part of Loop C of AQP3
T7 peptide: FATYPSGHLDM

T8: oligopeptide ATYPSGHL (SEQ ID NO: 102)
T8 construct: Synthetic peptide, part of Loop C of AQP3
T8 peptide: ATYPSGHL

T9: oligopeptide TYPSGHLDM (SEQ ID NO: 96)
T9 construct: Synthetic peptide, part of Loop C of AQP3
T9 peptide: TYPSGHLDM

T10: oligopeptide ATYPSGHLDM (SEQ ID NO: 1) (human and mouse)
T10 construct: Synthetic peptide; positions 148 to 157 of the human AQP3 polypeptide, identical in mouse; also called peptide used for immunization; oligopeptide 5
T10 peptide: ATYPSGHLDM

T11: oligopeptide ATYPSGH (SEQ ID NO: 103)
T11 construct: Synthetic peptide, part of Loop C of AQP3
T11 peptide: ATYPSGH

T12: oligopeptide ATYPSGHLD (SEQ ID NO: 101)
T12 construct: Synthetic peptide, part of Loop C of AQP3
T12 peptide: ATYPSGHLD

T13: oligopeptide TAGIFATYPSGHLDM (SEQ ID NO: 105)
T13 construct: Synthetic peptide, part of Loop C of AQP3
T13 peptide: TAGIFATYPSGHLDM

T14: oligopeptide IFATYPSGHLDM (SEQ ID NO: 108)
T14 construct: Synthetic peptide, part of Loop C of AQP3
T14 peptide: IFATYPSGHLDM

T15: oligopeptide SGPNGTAGIFATYPS (SEQ ID NO: 94)
T15 construct: Synthetic peptide, part of Loop C of AQP3
T15 peptide: SGPNGTAGIFATYPS

T16: oligopeptide PSGHLDM (SEQ ID NO: 98)
T16 construct: Synthetic peptide, part of Loop C of AQP3
T16 peptide: PSGHLDM

T17: oligopeptide GIFATYPSGHLDM (SEQ ID NO: 107)
T17 construct: Synthetic peptide, part of Loop C of AQP3
T17 peptide: GIFATYPSGHLDM

T18: oligopeptide YPSGHLDM (SEQ ID NO: 97)
T18 construct: Synthetic peptide, part of Loop C of AQP3; first diluted in DMSO
T18 peptide: YPSGHLDM

T19: mouse aquaporin 3 (AQP3) on cells (mouse, UniProt Q8R2N1 1-292)
T19 construct: whole, on cells; Water channel membrane protein; also called mouse AQP3; AQP3 on PAM212 cells
T19 sequence (looked up): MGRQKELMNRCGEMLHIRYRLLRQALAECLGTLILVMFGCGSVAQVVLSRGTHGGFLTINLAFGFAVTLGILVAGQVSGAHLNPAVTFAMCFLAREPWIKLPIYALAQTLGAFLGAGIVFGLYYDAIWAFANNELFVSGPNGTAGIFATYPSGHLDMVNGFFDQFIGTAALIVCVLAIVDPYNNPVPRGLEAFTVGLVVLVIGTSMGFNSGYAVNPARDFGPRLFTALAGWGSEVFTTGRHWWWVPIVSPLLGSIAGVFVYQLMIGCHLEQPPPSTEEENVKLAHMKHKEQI


What was measured:
[1] = biological target: T1, human aquaporin 3 (AQP3) on cells; test: fluorescence binding assay on HaCaT cells, 10 µg/mL
Description: (§1) HaCaT cells were reacted with each anti AQP3 antibody at concentrations of none, 1 ng/mL, 10 ng/mL, 100 ng/mL, 1 μg/mL, or 10 μg/mL at 4° C. for 1 hour. After washing the cells, a fluorescent-labeled secondary antibody was added and the reaction was allowed to occur additionally for 1 hour (at 4° C.). By measuring the fluorescence intensity, the binding property of each anti AQP3 antibody to cells was obtained.

[2] = biological target: T2, oligopeptide SRGTHGGFL (SEQ ID NO: 2); test: ELISA on peptide SEQ ID NO:2 (FIG. 16B)
[3] = biological target: T3, oligopeptide AGIFATYPSGHLDM (SEQ ID NO: …); test: ELISA on coated peptide
Description: (§2) To determine the important amino acid residues of an epitope in Loop C involved in binding to specific AQP3 antibody clones, peptides of varying lengths were produced. The sequences of these peptides are shown in column 2 of Table 4.
(§3) The various peptides and AQP3 antibody clones were subjected to ELISA binding analyses. […] The microtiter wells (Costar 2690) were coated with 50 μL of each peptide at 4° C. overnight. The wells were washed 3 times with PBS and blocked with 100 μL of 1% BSA/PBS at 37° C. for 1 hour. Each antibody was adjusted to 1 μg/mL in 1% SBA/PBS as above then serially diluted 1:5 in 1% BSA/PBS. The blocker was discarded and the wells were incubated with 50 μL of antibodies at 37° C. for 1.5 hours. The wells were washed 3 times with PBS and mouse antibodies were detected with 50 μL of goat anti-mouse IgG (H+L) HRP conjugate (ThermoFisher 31438) (1:5,000 in 1% BSA/PBS) and rabbit antibodies were detected with 50 μL of goat anti-rabbit IgG (H+L) HRP conjugate (ThermoFisher 31462) (1:5,000 in 1% BSA/PBS) at 37° C. for 1 hour. The wells were washed 3 times with PBS and developed with 50 μL of HRP substrate at RT for 5 min then stopped with 50 μL of 2N sulfuric acid and binding was measured with a plate reader.

[4] = biological target: T4, oligopeptide GHLDM (SEQ ID NO: 100); test: ELISA on coated peptide
Description: as §2, §3

[5] = biological target: T5, oligopeptide ATYPSG (SEQ ID NO: 104); test: ELISA on coated peptide
Description: as §2, §3

[6] = biological target: T6, oligopeptide SGHLDM (SEQ ID NO: 99); test: ELISA on coated peptide
Description: as §2, §3

[7] = biological target: T7, oligopeptide FATYPSGHLDM (SEQ ID NO: …); test: ELISA on coated peptide
Description: as §2, §3

[8] = biological target: T8, oligopeptide ATYPSGHL (SEQ ID NO: 102); test: ELISA on coated peptide
Description: as §2, §3

[9] = biological target: T9, oligopeptide TYPSGHLDM (SEQ ID NO: 96); test: ELISA on coated peptide
Description: as §2, §3

[10] = biological target: T10, oligopeptide ATYPSGHLDM (SEQ ID NO: 1); test: ELISA on coated peptide
Description: as §2, §3

[11] = biological target: T11, oligopeptide ATYPSGH (SEQ ID NO: 103); test: ELISA on coated peptide
Description: as §2, §3

[12] = biological target: T12, oligopeptide ATYPSGHLD (SEQ ID NO: 101); test: ELISA on coated peptide
Description: as §2, §3

[13] = biological target: T13, oligopeptide TAGIFATYPSGHLDM (SEQ ID …); test: ELISA on coated peptide
Description: as §2, §3

[14] = biological target: T14, oligopeptide IFATYPSGHLDM (SEQ ID NO: …); test: ELISA on coated peptide
Description: as §2, §3

[15] = biological target: T15, oligopeptide SGPNGTAGIFATYPS (SEQ ID …); test: ELISA on coated peptide
Description: as §2, §3

[16] = biological target: T16, oligopeptide PSGHLDM (SEQ ID NO: 98); test: ELISA on coated peptide
Description: as §2, §3

[17] = biological target: T17, oligopeptide GIFATYPSGHLDM (SEQ ID NO: …); test: ELISA on coated peptide
Description: as §2, §3

[18] = biological target: T18, oligopeptide YPSGHLDM (SEQ ID NO: 97); test: ELISA on coated peptide
Description: as §2, §3

[19] = biological target: T19, mouse aquaporin 3 (AQP3) on cells; test: fluorescence binding assay on PAM212 cells, 10 µg/mL
Description: as §1, with “PAM212” for “HaCaT”

[20] = biological target: T19, mouse aquaporin 3 (AQP3) on cells; test: cell-based or functional assay
[21] = biological target: T10, oligopeptide ATYPSGHLDM (SEQ ID NO: 1); test: ELISA on peptide SEQ ID NO:1, IgG, 50% binding response (FIG. 16A)
[22] = biological target: T19, mouse aquaporin 3 (AQP3) on cells; test: fluorescence binding assay on PAM212 cells, 1 ng/mL to 10 µg/mL (FIG. 17A)
Description: as §1, with “PAM212” for “HaCaT”

| fold fluorescence intensity over no antibody [1] [fold] | binding result [2] | binding signal (plate reader) [3] | binding signal (plate reader) [4] | binding signal (plate reader) [5] | binding signal (plate reader) [6] | binding signal (plate reader) [7] | binding signal (plate reader) [8] | binding signal (plate reader) [9] | binding signal (plate reader) [10] | binding signal (plate reader) [11] | binding signal (plate reader) [12] | binding signal (plate reader) [13] | binding signal (plate reader) [14] | binding signal (plate reader) [15] | binding signal (plate reader) [16] | binding signal (plate reader) [17] | binding signal (plate reader) [18] | fold fluorescence intensity over no antibody [19] [fold] | EC50 [21] | Binder | further results |
| --- | --- | --- | --- | --- | --- | --- | --- | --- | --- | --- | --- | --- | --- | --- | --- | --- | --- | --- | --- | --- | --- |
| > 2 | no binding | 3.83 | 0.097 | 0.915 | 0.135 | 3.87 | 4 | 4 | 3.98 | 3.44 | 3.92 | 3.96 | 3.69 | 2.02 | 2.23 | 3.79 | 3.96 | ≥ 2 | 0.01 µg/mL and ~0.06 nM | SC-B6 (IgG) (antibody, V domains shown, also called anti AQP3 antibody SC-B6) VH: QSVKESGGRLVTPGAPLTLTCTVSGFSLNNYAMTWVRQAPGKGLEWIGIINNDGISSTWYASWVKGRFIISKTSTTVDLKMTSLTTEDTATYFCARGGTSGYDIWGPGTLVTVSL VL: AQGPTQTPSPVSAAVGGTVTINCQSSPSVYKNYLSWYQQKPGQPPKLLIYGASTLASGVPSRFKGSRSGTQFTLTISDVQCDDAATYYCAGGYIGSRDIFSFGGGTEVVVK | decrease in H2O2 uptake in PAM212 cells against no antibody control [20]: ~2 fold |
| > 2 | no binding | 3.92 | 0.06 | 1.77 | 0.071 | 3.92 | 3.99 | 3.92 | 3.97 | 3.81 | 3.91 | 4 | 3.91 | 2.99 | 1.56 | 3.86 | 3.94 | ≥ 2 | 0.01 µg/mL and ~0.06 nM | SC-F8 (IgG) (antibody, V domains shown, also called anti AQP3 antibody SC-F8) VH: QTVKESGGRLVTPGGSLTLTCTVSRFSLSNYAMTWVRQAPGKGLEWIGIINNDGISSTWYASWVKGRFTISKTSTTMDLKMTSLTTEDTATYFCARGGTSGYDIWGPGTLVTVSL VL: AQVLTQTPSPVSAAVGGTVTINCQSSPSVYKNYLSWYQQKPGQPPKLLIYGASTLASGVPSRFKGSGSGTQFTLTISDVQCDDAATYYCAGGYRGSSDIFAFGGGTEVVVK |  |
|  | no binding | 2.65 | 0.048 | 0.627 | 0.053 | 3.75 | 3.9 | 3.99 | 3.94 | 3.16 | 3.9 | 3.92 | 3.76 | 0.824 | 0.733 | 3.8 | 3.94 |  | 0.01 µg/mL and ~0.06 nM | BC-H9 (IgG) (antibody, V domains shown, also called anti AQP3 antibody BC-H9) VH: QSLEESGGRLVTPGTPLTLTCTVSGFSLYTYAMGWVRQAPGKGLEWIGIINNDGISSTWYASWVKGRFTISKTSTTMDLKMTSLTTEDTATYFCARGGTSGYDIWGPGTLVTVSL VL: AQGLTQTPSPVSAAVGGTVTINCQSGPSVYKNYLSWYQQKAGQPPKLLIYGASTLASGVPSRFKGSGSGTQFTLTISDVQCDDAATYYCAGGYRGSSDIFAFGGGTEVVVK | binding result [22]: binds |
